Data from paper PMC5814800.

Biological target: T25-ϕC31 gp3 (wild type) fusion protein
Assay: bacterial two-hybrid (B2H) β-galactosidase assay
Conditions: parent: est. 0.14; read off a plot

response (ΔOD420/min/ml) | Substance
0.019 | wild-type ϕC31 integrase fused to T18 (Int-T18 fusion, pEY111) (from UniProt Q9T221) I420A
0.13 | wild-type ϕC31 integrase fused to T18 (Int-T18 fusion, pEY111) (from UniProt Q9T221) I420V
0.021 | wild-type ϕC31 integrase fused to T18 (Int-T18 fusion, pEY111) (from UniProt Q9T221) I420V; I582V
0.027 | wild-type ϕC31 integrase fused to T18 (Int-T18 fusion, pEY111) (from UniProt Q9T221) I582A
0.037 | wild-type ϕC31 integrase fused to T18 (Int-T18 fusion, pEY111) (from UniProt Q9T221) I582G
0.15 | wild-type ϕC31 integrase fused to T18 (Int-T18 fusion, pEY111) (from UniProt Q9T221) I582L
0.068 | wild-type ϕC31 integrase fused to T18 (Int-T18 fusion, pEY111) (from UniProt Q9T221) I582T
0.1 | wild-type ϕC31 integrase fused to T18 (Int-T18 fusion, pEY111) (from UniProt Q9T221) I582V
0.023 | wild-type ϕC31 integrase fused to T18 (Int-T18 fusion, pEY111) (from UniProt Q9T221) W526A
0.21 | wild-type ϕC31 integrase fused to T18 (Int-T18 fusion, pEY111) (from UniProt Q9T221) W526F
0.008 | wild-type ϕC31 integrase fused to T18 (Int-T18 fusion, pEY111) (from UniProt Q9T221) W526R

Substance | response (ΔOD420/min/ml)
wild-type ϕC31 integrase fused to T18 (Int-T18 fusion, pEY111) (from UniProt Q9T221) I420A; I582T | -0.009
wild-type ϕC31 integrase fused to T18 (Int-T18 fusion, pEY111) (from UniProt Q9T221) I420A; I582V | -0.016
